Measurements from article PMC3817407.

T1: ECF22_1147
T1 chain: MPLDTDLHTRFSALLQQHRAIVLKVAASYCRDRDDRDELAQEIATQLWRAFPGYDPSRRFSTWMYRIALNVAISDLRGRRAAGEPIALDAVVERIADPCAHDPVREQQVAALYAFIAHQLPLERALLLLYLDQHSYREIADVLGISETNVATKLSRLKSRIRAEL

T2: ECF11_987
T2 chain: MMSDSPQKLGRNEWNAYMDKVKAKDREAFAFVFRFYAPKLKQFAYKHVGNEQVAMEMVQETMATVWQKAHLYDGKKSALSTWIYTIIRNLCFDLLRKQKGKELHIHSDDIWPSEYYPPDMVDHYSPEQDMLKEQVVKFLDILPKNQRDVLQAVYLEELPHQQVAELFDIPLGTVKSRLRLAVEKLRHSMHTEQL

T3: ECF16_3622
T3 chain: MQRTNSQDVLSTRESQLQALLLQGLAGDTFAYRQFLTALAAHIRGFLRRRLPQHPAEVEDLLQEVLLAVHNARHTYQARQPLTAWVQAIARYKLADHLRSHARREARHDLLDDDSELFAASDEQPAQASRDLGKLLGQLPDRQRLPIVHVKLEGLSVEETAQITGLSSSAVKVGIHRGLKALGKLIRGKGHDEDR

T4: ECF15_436
T4 chain: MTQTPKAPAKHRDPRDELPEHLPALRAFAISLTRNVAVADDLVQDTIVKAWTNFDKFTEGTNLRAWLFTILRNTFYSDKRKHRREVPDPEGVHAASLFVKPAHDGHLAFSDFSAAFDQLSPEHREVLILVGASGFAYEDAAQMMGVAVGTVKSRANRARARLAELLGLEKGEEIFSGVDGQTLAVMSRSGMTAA

T5: ECF15_524
T5 chain: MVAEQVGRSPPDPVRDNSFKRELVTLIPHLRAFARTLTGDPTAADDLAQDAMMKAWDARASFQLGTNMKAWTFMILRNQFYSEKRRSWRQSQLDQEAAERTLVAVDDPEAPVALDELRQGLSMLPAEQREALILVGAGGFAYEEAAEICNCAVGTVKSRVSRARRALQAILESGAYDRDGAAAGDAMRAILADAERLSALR

T6: ECF14_1324
T6 chain: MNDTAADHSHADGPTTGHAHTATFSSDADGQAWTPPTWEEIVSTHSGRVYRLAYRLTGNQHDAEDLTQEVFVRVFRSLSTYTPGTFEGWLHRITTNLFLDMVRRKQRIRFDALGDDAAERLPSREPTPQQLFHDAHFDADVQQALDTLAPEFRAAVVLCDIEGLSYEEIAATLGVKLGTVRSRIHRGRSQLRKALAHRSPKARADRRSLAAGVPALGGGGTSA

T7: ECF33_375
T7 chain: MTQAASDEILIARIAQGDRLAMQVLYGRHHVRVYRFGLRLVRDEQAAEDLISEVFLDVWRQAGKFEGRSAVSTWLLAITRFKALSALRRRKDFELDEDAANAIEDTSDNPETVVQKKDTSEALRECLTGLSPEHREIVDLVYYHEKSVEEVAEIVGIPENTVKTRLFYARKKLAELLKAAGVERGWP

T8: ECF25_1645
T8 chain: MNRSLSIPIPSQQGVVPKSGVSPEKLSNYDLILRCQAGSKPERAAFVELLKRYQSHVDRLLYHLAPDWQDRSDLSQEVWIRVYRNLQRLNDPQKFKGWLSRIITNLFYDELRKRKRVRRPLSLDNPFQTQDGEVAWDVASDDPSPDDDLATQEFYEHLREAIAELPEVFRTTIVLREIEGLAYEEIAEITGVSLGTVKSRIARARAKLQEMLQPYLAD

T9: ECF17_1691
T9 chain: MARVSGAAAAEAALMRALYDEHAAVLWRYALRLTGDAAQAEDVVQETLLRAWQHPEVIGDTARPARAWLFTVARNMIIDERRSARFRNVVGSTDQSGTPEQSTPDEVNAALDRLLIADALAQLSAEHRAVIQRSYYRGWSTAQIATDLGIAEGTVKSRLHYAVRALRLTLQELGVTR

T10: ECF37_2513
T10 chain: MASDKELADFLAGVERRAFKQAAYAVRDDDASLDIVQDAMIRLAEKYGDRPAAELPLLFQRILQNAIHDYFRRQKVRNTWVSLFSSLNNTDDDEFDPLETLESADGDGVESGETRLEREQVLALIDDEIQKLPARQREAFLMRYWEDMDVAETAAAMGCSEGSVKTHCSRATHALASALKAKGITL

T11: ECF01_3473
T11 chain: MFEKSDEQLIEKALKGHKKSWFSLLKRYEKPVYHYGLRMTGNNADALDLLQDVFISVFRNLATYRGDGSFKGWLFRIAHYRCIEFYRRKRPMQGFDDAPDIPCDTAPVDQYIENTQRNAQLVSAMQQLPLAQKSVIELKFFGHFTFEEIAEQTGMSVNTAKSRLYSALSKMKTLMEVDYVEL

T12: ECF03_1244
T12 chain: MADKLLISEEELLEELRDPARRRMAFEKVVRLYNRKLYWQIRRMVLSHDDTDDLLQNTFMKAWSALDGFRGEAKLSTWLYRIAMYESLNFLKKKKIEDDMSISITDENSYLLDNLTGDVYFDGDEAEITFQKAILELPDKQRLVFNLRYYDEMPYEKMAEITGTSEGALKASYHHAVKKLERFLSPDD

T13: ECF34_1384
T13 chain: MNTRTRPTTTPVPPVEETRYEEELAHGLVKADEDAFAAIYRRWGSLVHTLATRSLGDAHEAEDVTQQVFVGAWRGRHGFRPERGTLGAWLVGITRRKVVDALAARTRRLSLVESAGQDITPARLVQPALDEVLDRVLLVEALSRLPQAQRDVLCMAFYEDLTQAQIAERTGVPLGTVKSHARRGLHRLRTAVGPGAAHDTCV

T14: ECF38_1322
T14 chain: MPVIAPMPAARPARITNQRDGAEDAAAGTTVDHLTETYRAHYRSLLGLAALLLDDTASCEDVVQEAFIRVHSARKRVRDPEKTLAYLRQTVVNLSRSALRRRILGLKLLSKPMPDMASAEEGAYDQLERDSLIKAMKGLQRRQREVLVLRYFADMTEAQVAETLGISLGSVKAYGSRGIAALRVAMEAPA


Key:
ECF22_1147 = target: T1, ECF22_1147
ECF11_987 = target: T2, ECF11_987
ECF16_3622 = target: T3, ECF16_3622
ECF15_436 = target: T4, ECF15_436
ECF15_524 = target: T5, ECF15_524
ECF14_1324 = target: T6, ECF14_1324
ECF33_375 = target: T7, ECF33_375
ECF25_1645 = target: T8, ECF25_1645
ECF17_1691 = target: T9, ECF17_1691
ECF37_2513 = target: T10, ECF37_2513
ECF01_3473 = target: T11, ECF01_3473
ECF03_1244 = target: T12, ECF03_1244
ECF34_1384 = target: T13, ECF34_1384
ECF38_1322 = target: T14, ECF38_1322

| Binder | fold repression (ECF22_1147) | fold repression (ECF11_987) | fold repression (ECF16_3622) | fold repression (ECF15_436) | fold repression (ECF15_524) | fold repression (ECF26_4464) | fold repression (ECF14_1324) | fold repression (ECF33_375) | fold repression (ECF25_1645) | fold repression (ECF17_1691) | fold repression (ECF37_2513) | fold repression (ECF01_3473) | fold repression (ECF03_1244) | fold repression (ECF34_1384) | fold repression (ECF38_1322) |
| --- | --- | --- | --- | --- | --- | --- | --- | --- | --- | --- | --- | --- | --- | --- | --- |
| AS37_2513 (protein) MSSAPATKEEVDFALKVRRALDERAASLPDATTDRLAAARRAALARKKPDAAIVLVPALAGSAGTLELRPPGEPRKSLARRLARAWPLALLLAGLIGIAYWEDMQRTAELADIDAAMLSDNLPLTAYLDHGFNAYLSHTH | 8.31 | 9.25 | 5.36 | 5.3 | 4.06 | 7.32 | 13.8 | 2.48 | 3.92 | 4.17 | 13.5 | 6.84 | 3.44 | 6.47 | 2.73 |
| AS38_1322 (protein) MSDGNDARPDARDGHDPGSDARDGHDPGSHARDGHDPGAGPFDGHGPGSDAGDGDDAGPDARDGHGAPAGPAGREQRKHPHDTHDMHDTHDTHAGKGTVNHGPAAQGPDAPGADGPATDEAALRAMMQRAVREMEPSDGTLEHLRRAVPARRARKRQALVGAAAAALFLGTAVPALVHVSNATGAGADPSVAGNASQAQGGASQGKDPAGGQSGVAGTGDTPEDRDKADPKETPGGKEPGAATGAPPSGVPSASSPADVPACAPGSLGPAVASSAEPDSTGVVYGSFRVTNVSSDGCTVTGPGTVVTASLGAAEATRIGTARHAAGDAAAGLPDPSLETASLALAPGAAYEVQFAWVPSETCPTTGGTTGGGSGGPSPDPSPTADTTAAGGTSAGGGEAGPTTQLITEDGPAEGSVSVTYTPEGGSGSATATVSNACAGTVYWTGLLADSGSGA | 6.04 | 10.4 | 4.56 | 5.64 | 4.95 | 5.74 | 8.93 | 3.13 | 3.94 | 2.81 | 6.38 | 4.19 | 4.75 | 6.19 | 54.2 |
| AS33_423 (protein) MMAMSNTMPDPREPGDVEALLPWYAAGTLNARDARRVADALDRDPALARQYAVILEEYASTIELNESLGAPSSRAMQKLFAAIDAEPARAPGAGQGLGARFAGFFAGLSPKALAWSASVAGLALLLQAGLIGALLTWPHAAPVQTAAYQPQREVARAPASSPAPATVSPPAAAMADRAADAGKSTPPMVMAERSGGPVVRSLAPQSGPRVLVKFAPEARASEIAALLDQYNAVVVDSSRGGLFRLQFGTQSLSKQDQETLIGRLQKEPVVSVVLSAP | 9.02 | 13.7 | 35.1 | 14.3 | 9.15 | 9.42 | 36 | 114 | 3.68 | 3.16 | 10 | 3.36 | 13.5 | 8.97 | 5.66 |
| AS35_3582 (protein) MNPQKHSASVAEEQMLAHFRAHAPQQPAPALDQAILAAARRQAAHVEPARSWWRRWLEASRRPRWQAAFASLLGVALVLGLVSHNVLDDAERQARPEVAFSDVPLRDGVAGAAAAKRAMRAPAAPAPLSGEMSEPPALLASYASSGEAPQLMAEAAPPAPAALADRPPAQAAQQAKVQAALAGDFVAQARGKAVAVKPEVLDEALGAVLALREQGKTEQAATQLAELQKRFPGENLVERLERLATIAASARKRP | 10.9 | 9.63 | 6.44 | 7.43 | 5.37 | 10.7 | 13.1 | 2.9 | 3.79 | 4.63 | 8.97 | 5.93 | 4.18 | 9.31 | 3.42 |
| AS33_375 (protein) MMALSKKMLEQEPSEIELLLPWHAAGTLNARDARRVEDALARDPELAKQYAAIRGEYEETIHLNESLGAPSARAMQKLFGAIDAEPARETGSLPLSARIATFFASLSPRTLAWSASLGAVALVLQAGIIGAVLMKTQPTTFQTASLSTSAPITRELGAAVAPARALVRFTPEARVADITALLDSYQASIIGDAKGGMFRLQFDKAMSQDELASLLGRMQREKFVNLAVAAP | 12.9 | 17.1 | 22.6 | 20.3 | 14.3 | 14.1 | 44.6 | 152 | 5.35 | 3.94 | 13.5 | 5.29 | 16.3 | 12.2 | 7.66 |
